Biological target: ISCU(M108I) (human) (UniProt Q9H1K1)
Assay: ITC

Kd: 2.6 µM
Substance: human cysteine desulfurase complex (NIA)2, [NFS1]2:[ISD11]2:[Acp]2 (from UniProt Q9HD34 1-91; P0A6A8 1-78)
